Experimental data published in article PMC12095637.
Like-named read-outs stand apart in the source and are kept apart here.

Key:
Experiment in all cases: SEC-MALS
[1] = target: DdMICU (Dictyostelium discoideum MICU, residues 105–461) (Dictyostelium discoideum)
[2] = target: DdMICU (Dictyostelium discoideum MICU, residues 105–461) (Dictyostelium discoideum); remark: listed apart in the source
[3] = target: DdMICU (Dictyostelium discoideum MICU, residues 105–461) (Dictyostelium discoideum); remark: listed apart in the source

DdMICU (Dictyostelium discoideum MICU, residues 105–461) (domain or fragment)
stoichiometry N [1]: 2
stoichiometry N [2]: 2
stoichiometry N [3]: 4
